In patent publication US20150344570A1 (published 2015):

T1: FcγRIIb (human, UniProt P31994 43-217)
T1 construct: extracellular domain; also called FcgRIIb; 2b
T1 sequence (looked up): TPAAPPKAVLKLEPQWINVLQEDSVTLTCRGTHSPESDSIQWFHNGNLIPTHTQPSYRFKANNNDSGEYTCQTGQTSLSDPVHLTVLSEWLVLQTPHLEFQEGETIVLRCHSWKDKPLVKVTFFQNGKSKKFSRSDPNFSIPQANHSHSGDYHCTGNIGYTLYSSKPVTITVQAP

T2: FcγRIIa H (human, UniProt P12318 34-217)
T2 construct: extracellular domain; also called FcgRIIa H; FcγRIIa type H
T2 sequence (looked up): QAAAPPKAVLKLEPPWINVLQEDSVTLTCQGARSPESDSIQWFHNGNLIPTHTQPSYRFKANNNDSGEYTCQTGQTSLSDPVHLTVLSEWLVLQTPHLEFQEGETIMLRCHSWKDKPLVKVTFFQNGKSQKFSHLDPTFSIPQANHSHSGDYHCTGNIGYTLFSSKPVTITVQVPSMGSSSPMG


Tests used:
FcγRIIb = molecular target: T1, FcγRIIb; assay: SPR (Biacore), antibody captured, FcγR analyte; binding relative to GpH7-A5/GpH7-B3/GpL16-k0 = 100
FcγRIIa H [1] = molecular target: T2, FcγRIIa H; assay: as above
FcγRIIa H [2] = molecular target: T2, FcγRIIa H; assay: SPR (Biacore); He/Con_2aH divided by He/Con_2b (FcγRIIa H over FcγRIIb)

Binder	He/Con_2b (FcγRIIb)	He/Con_2aH (FcγRIIa H [1])	He_2aH/2b (IIaH/IIb) (FcγRIIa H [2]) [ratio]
GpH7-A5/GpH7-B3 variant G237_02A/GpL16-k0 (antibody, human IgG1, kappa, Heterodimerized antibody, alteration in one H chain only; also called He Ab G237A) heavy 1: not shown heavy 2: not shown light: DIVMTQSPLSLPVTPGEPASISCQASESLVHSNRNTYLHWYLQKPGQSPQLLIYKVSNRFSGVPDRFSGSGSGTDFTLKISRVEAEDVGVYYCSQNTHVPPTFGQGTKVEIERTVAAPSVFIFPPSDEQLKSGTASVVCLLNNFYPREAKVQWKVDNALQSGNSQESVTEQDSKDSTYSLSSTLTLSKADYEKHKVYACEVTHQGLSSPVTKSFNRGEC	124 % of control	34 % of control	0.27
GpH7-A5/GpH7-B3 variant G237_09D/GpL16-k0 (antibody, human IgG1, kappa, Heterodimerized antibody, alteration in one H chain only; also called He Ab G237D) heavy 1: not shown heavy 2: not shown light: DIVMTQSPLSLPVTPGEPASISCQASESLVHSNRNTYLHWYLQKPGQSPQLLIYKVSNRFSGVPDRFSGSGSGTDFTLKISRVEAEDVGVYYCSQNTHVPPTFGQGTKVEIERTVAAPSVFIFPPSDEQLKSGTASVVCLLNNFYPREAKVQWKVDNALQSGNSQESVTEQDSKDSTYSLSSTLTLSKADYEKHKVYACEVTHQGLSSPVTKSFNRGEC	223 % of control	11.1 % of control	0.05
GpH7-A5/GpH7-B3 variant G237_06M/GpL16-k0 (antibody, human IgG1, kappa, Heterodimerized antibody, alteration in one H chain only; also called He Ab G237M) heavy 1: not shown heavy 2: not shown light: DIVMTQSPLSLPVTPGEPASISCQASESLVHSNRNTYLHWYLQKPGQSPQLLIYKVSNRFSGVPDRFSGSGSGTDFTLKISRVEAEDVGVYYCSQNTHVPPTFGQGTKVEIERTVAAPSVFIFPPSDEQLKSGTASVVCLLNNFYPREAKVQWKVDNALQSGNSQESVTEQDSKDSTYSLSSTLTLSKADYEKHKVYACEVTHQGLSSPVTKSFNRGEC	130 % of control	17.8 % of control	0.14
GpH7-A5/GpH7-B3 variant G237_19Q/GpL16-k0 (antibody, human IgG1, kappa, Heterodimerized antibody, alteration in one H chain only; also called He Ab G237Q) heavy 1: not shown heavy 2: not shown light: DIVMTQSPLSLPVTPGEPASISCQASESLVHSNRNTYLHWYLQKPGQSPQLLIYKVSNRFSGVPDRFSGSGSGTDFTLKISRVEAEDVGVYYCSQNTHVPPTFGQGTKVEIERTVAAPSVFIFPPSDEQLKSGTASVVCLLNNFYPREAKVQWKVDNALQSGNSQESVTEQDSKDSTYSLSSTLTLSKADYEKHKVYACEVTHQGLSSPVTKSFNRGEC	108 % of control	26.5 % of control	0.25
GpH7-A5/GpH7-B3 variant G237_20W/GpL16-k0 (antibody, human IgG1, kappa, Heterodimerized antibody, alteration in one H chain only; also called He Ab G237W) heavy 1: not shown heavy 2: not shown light: DIVMTQSPLSLPVTPGEPASISCQASESLVHSNRNTYLHWYLQKPGQSPQLLIYKVSNRFSGVPDRFSGSGSGTDFTLKISRVEAEDVGVYYCSQNTHVPPTFGQGTKVEIERTVAAPSVFIFPPSDEQLKSGTASVVCLLNNFYPREAKVQWKVDNALQSGNSQESVTEQDSKDSTYSLSSTLTLSKADYEKHKVYACEVTHQGLSSPVTKSFNRGEC	193 % of control	31.6 % of control	0.16
GpH7-A5/GpH7-B3 variant G237_10E/GpL16-k0 (antibody, human IgG1, kappa, Heterodimerized antibody, alteration in one H chain only; also called He Ab G237E) heavy 1: not shown heavy 2: not shown light: DIVMTQSPLSLPVTPGEPASISCQASESLVHSNRNTYLHWYLQKPGQSPQLLIYKVSNRFSGVPDRFSGSGSGTDFTLKISRVEAEDVGVYYCSQNTHVPPTFGQGTKVEIERTVAAPSVFIFPPSDEQLKSGTASVVCLLNNFYPREAKVQWKVDNALQSGNSQESVTEQDSKDSTYSLSSTLTLSKADYEKHKVYACEVTHQGLSSPVTKSFNRGEC	114 % of control	15.1 % of control	0.13
GpH7-A5/GpH7-B3 variant G237_12R/GpL16-k0 (antibody, human IgG1, kappa, Heterodimerized antibody, alteration in one H chain only; also called He Ab G237R) heavy 1: not shown heavy 2: not shown light: DIVMTQSPLSLPVTPGEPASISCQASESLVHSNRNTYLHWYLQKPGQSPQLLIYKVSNRFSGVPDRFSGSGSGTDFTLKISRVEAEDVGVYYCSQNTHVPPTFGQGTKVEIERTVAAPSVFIFPPSDEQLKSGTASVVCLLNNFYPREAKVQWKVDNALQSGNSQESVTEQDSKDSTYSLSSTLTLSKADYEKHKVYACEVTHQGLSSPVTKSFNRGEC		7.5 % of control	0.76
GpH7-A5/GpH7-B3 variant G237_18N/GpL16-k0 (antibody, human IgG1, kappa, Heterodimerized antibody, alteration in one H chain only; also called He Ab G237N) heavy 1: not shown heavy 2: not shown light: DIVMTQSPLSLPVTPGEPASISCQASESLVHSNRNTYLHWYLQKPGQSPQLLIYKVSNRFSGVPDRFSGSGSGTDFTLKISRVEAEDVGVYYCSQNTHVPPTFGQGTKVEIERTVAAPSVFIFPPSDEQLKSGTASVVCLLNNFYPREAKVQWKVDNALQSGNSQESVTEQDSKDSTYSLSSTLTLSKADYEKHKVYACEVTHQGLSSPVTKSFNRGEC	180 % of control	15.2 % of control	0.08
GpH7-A5/GpH7-B3 variant G237_16H/GpL16-k0 (antibody, human IgG1, kappa, Heterodimerized antibody, alteration in one H chain only; also called He Ab G237H) heavy 1: not shown heavy 2: not shown light: DIVMTQSPLSLPVTPGEPASISCQASESLVHSNRNTYLHWYLQKPGQSPQLLIYKVSNRFSGVPDRFSGSGSGTDFTLKISRVEAEDVGVYYCSQNTHVPPTFGQGTKVEIERTVAAPSVFIFPPSDEQLKSGTASVVCLLNNFYPREAKVQWKVDNALQSGNSQESVTEQDSKDSTYSLSSTLTLSKADYEKHKVYACEVTHQGLSSPVTKSFNRGEC	55.2 % of control	16.4 % of control	0.3
GpH7-A5/GpH7-B3 variant G236_09D/GpL16-k0 (antibody, human IgG1, kappa, Heterodimerized antibody, alteration in one H chain only; also called He Ab G236D) heavy 1: not shown heavy 2: not shown light: DIVMTQSPLSLPVTPGEPASISCQASESLVHSNRNTYLHWYLQKPGQSPQLLIYKVSNRFSGVPDRFSGSGSGTDFTLKISRVEAEDVGVYYCSQNTHVPPTFGQGTKVEIERTVAAPSVFIFPPSDEQLKSGTASVVCLLNNFYPREAKVQWKVDNALQSGNSQESVTEQDSKDSTYSLSSTLTLSKADYEKHKVYACEVTHQGLSSPVTKSFNRGEC	167 % of control	89.8 % of control	0.54
GpH7-A5/GpH7-B3 variant G237_15Y/GpL16-k0 (antibody, human IgG1, kappa, Heterodimerized antibody, alteration in one H chain only; also called He Ab G237Y) heavy 1: not shown heavy 2: not shown light: DIVMTQSPLSLPVTPGEPASISCQASESLVHSNRNTYLHWYLQKPGQSPQLLIYKVSNRFSGVPDRFSGSGSGTDFTLKISRVEAEDVGVYYCSQNTHVPPTFGQGTKVEIERTVAAPSVFIFPPSDEQLKSGTASVVCLLNNFYPREAKVQWKVDNALQSGNSQESVTEQDSKDSTYSLSSTLTLSKADYEKHKVYACEVTHQGLSSPVTKSFNRGEC	152 % of control	25.4 % of control	0.17
GpH7-A5/GpH7-B3 variant G237_13S/GpL16-k0 (antibody, human IgG1, kappa, Heterodimerized antibody, alteration in one H chain only; also called He Ab G237S) heavy 1: not shown heavy 2: not shown light: DIVMTQSPLSLPVTPGEPASISCQASESLVHSNRNTYLHWYLQKPGQSPQLLIYKVSNRFSGVPDRFSGSGSGTDFTLKISRVEAEDVGVYYCSQNTHVPPTFGQGTKVEIERTVAAPSVFIFPPSDEQLKSGTASVVCLLNNFYPREAKVQWKVDNALQSGNSQESVTEQDSKDSTYSLSSTLTLSKADYEKHKVYACEVTHQGLSSPVTKSFNRGEC	111 % of control	29.8 % of control	0.27
GpH7-A5/GpH7-B3 variant G237_14T/GpL16-k0 (antibody, human IgG1, kappa, Heterodimerized antibody, alteration in one H chain only; also called He Ab G237T) heavy 1: not shown heavy 2: not shown light: DIVMTQSPLSLPVTPGEPASISCQASESLVHSNRNTYLHWYLQKPGQSPQLLIYKVSNRFSGVPDRFSGSGSGTDFTLKISRVEAEDVGVYYCSQNTHVPPTFGQGTKVEIERTVAAPSVFIFPPSDEQLKSGTASVVCLLNNFYPREAKVQWKVDNALQSGNSQESVTEQDSKDSTYSLSSTLTLSKADYEKHKVYACEVTHQGLSSPVTKSFNRGEC	54.8 % of control	31.8 % of control	0.58
GpH7-A5/GpH7-B3 variant G237_04F/GpL16-k0 (antibody, human IgG1, kappa, Heterodimerized antibody, alteration in one H chain only; also called He Ab G237F) heavy 1: not shown heavy 2: not shown light: DIVMTQSPLSLPVTPGEPASISCQASESLVHSNRNTYLHWYLQKPGQSPQLLIYKVSNRFSGVPDRFSGSGSGTDFTLKISRVEAEDVGVYYCSQNTHVPPTFGQGTKVEIERTVAAPSVFIFPPSDEQLKSGTASVVCLLNNFYPREAKVQWKVDNALQSGNSQESVTEQDSKDSTYSLSSTLTLSKADYEKHKVYACEVTHQGLSSPVTKSFNRGEC	149 % of control	41.4 % of control	0.28
GpH7-A5/GpH7-B3 variant G237_08L/GpL16-k0 (antibody, human IgG1, kappa, Heterodimerized antibody, alteration in one H chain only; also called He Ab G237L) heavy 1: not shown heavy 2: not shown light: DIVMTQSPLSLPVTPGEPASISCQASESLVHSNRNTYLHWYLQKPGQSPQLLIYKVSNRFSGVPDRFSGSGSGTDFTLKISRVEAEDVGVYYCSQNTHVPPTFGQGTKVEIERTVAAPSVFIFPPSDEQLKSGTASVVCLLNNFYPREAKVQWKVDNALQSGNSQESVTEQDSKDSTYSLSSTLTLSKADYEKHKVYACEVTHQGLSSPVTKSFNRGEC	148 % of control	13.9 % of control	0.09
GpH7-A5/GpH7-B3 variant G237_03V/GpL16-k0 (antibody, human IgG1, kappa, Heterodimerized antibody, alteration in one H chain only; also called He Ab G237V) heavy 1: not shown heavy 2: not shown light: DIVMTQSPLSLPVTPGEPASISCQASESLVHSNRNTYLHWYLQKPGQSPQLLIYKVSNRFSGVPDRFSGSGSGTDFTLKISRVEAEDVGVYYCSQNTHVPPTFGQGTKVEIERTVAAPSVFIFPPSDEQLKSGTASVVCLLNNFYPREAKVQWKVDNALQSGNSQESVTEQDSKDSTYSLSSTLTLSKADYEKHKVYACEVTHQGLSSPVTKSFNRGEC	61.4 % of control	39.4 % of control	0.64
GpH7-A5/GpH7-B3 variant G237_11K/GpL16-k0 (antibody, human IgG1, kappa, Heterodimerized antibody, alteration in one H chain only; also called He Ab G237K) heavy 1: not shown heavy 2: not shown light: DIVMTQSPLSLPVTPGEPASISCQASESLVHSNRNTYLHWYLQKPGQSPQLLIYKVSNRFSGVPDRFSGSGSGTDFTLKISRVEAEDVGVYYCSQNTHVPPTFGQGTKVEIERTVAAPSVFIFPPSDEQLKSGTASVVCLLNNFYPREAKVQWKVDNALQSGNSQESVTEQDSKDSTYSLSSTLTLSKADYEKHKVYACEVTHQGLSSPVTKSFNRGEC	9 % of control	5.8 % of control	0.64
